Experimental data taken from IntAct's records for PubMed 8174709.

B1: Ferredoxin--NADP reductase, chloroplastic (Spinacia oleracea (Spinach)), P00455 (parent)
chain: MTTAVTAAVSFPSTKTTSLSARSSSVISPDKISYKKVPLYYRNVSATGKMGPIRAQIASDVEAPPPAPAKVEKHSKKMEEGITVNKFKPKTPYVGRCLLNTKITGDDAPGETWHMVFSHEGEIPYREGQSVGVIPDGEDKNGKPHKLRLYSIASSALGDFGDAKSVSLCVKRLIYTNDAGETIKGVCSNFLCDLKPGAEVKLTGPVGKEMLMPKDPNATIIMLGTGTGIAPFRSFLWKMFFEKHDDYKFNGLAWLFLGVPTSSSLLYKEEFEKMKEKAPDNFRLDFAVSREQTNEKGEKMYIQTRMAQYAVELWEMLKKDNTYFYMCGLKGMEKGIDDIMVSLAAAEGIDWIEYKRQLKKAEQWNVEVY

Variants of: B1
Settings: with fer1_spiol PETF
MTTAVTAAVSFPSTKTTSLSARSSSVISPDKISYKKVPLYYRNVSATGKMGPIRAQIASDVEAPPPAPAKVEKHSKKMEEGITVNKFQPKTPYVGRCLLNTKITGDDAPGETWHMVFSHEGEIPYREGQSVGVIPDGEDKNGKPHKLRLYSIASSALGDFGDAKSVSLCVKRLIYTNDAGETIKGVCSNFLCDLKPGAEVKLTGPVGKEMLMPKDPNATIIMLGTGTGIAPFRSFLWKMFFEKHDDYKFNGLAWLFLGVPTSSSLLYKEEFEKMKEKAPDNFRLDFAVSREQTNEKGEKMYIQTRMAQYAVELWEMLKKDNTYFYMCGLKGMEKGIDDIMVSLAAAEGIDWIEYKRQLKKAEQWNVEVY [K88Q] was tested, and the “effect of a mutation on the interaction” value was “decreasing interaction”.
